In publication doi:10.1101/259481 (bioRxiv, 2018):
Like-named read-outs stand apart in the source and are kept apart here. One block for each molecule: values may come before it.

B1: platelet-derived growth factor (PDGF)-BB (ligand, human, UniProt P01127 82-190, looked up)
chain: SLGSLTIAEPAMIAECKTRTEVFEISRRLIDRTNANFLVWPPCVEVQRCSGCCNNRNVQCRPTQVQLRPVQVRKIEIVRKKPIFKKATVTLEDHLACKCETVAAARPVT
B2: placental growth factor (PlGF)-2 (ligand, human, UniProt P49763-3 19-170, looked up)
chain: LPAVPPQQWALSAGNGSSEVEVVPFQEVWGRSYCRALERLVDVVSEYPSEVEHMFSPSCVSLLRCTGCCGDENLHCVPVETANVTMQLLKIRSGDRPSYVELTFSQHVRCECRPLREKMKPERRRPKGRGKRRREKQRPTDCHLCGDAVPRR

Experiments:
[1] = target: recombinant laminin α3_(2928-3150) protein (human) (UniProt Q16787); assay: SPR
laminin-521 = laminin-521 (human, UniProt O15230 36-3695; P55268 33-1798; P11047 34-1609); assay: SPR
[2] = target: fibroblast growth factor (FGF)-2 (human, UniProt P09038 143-288); assay: ELISA
Chain of fibroblast growth factor (FGF)-2 (P09038 143-288): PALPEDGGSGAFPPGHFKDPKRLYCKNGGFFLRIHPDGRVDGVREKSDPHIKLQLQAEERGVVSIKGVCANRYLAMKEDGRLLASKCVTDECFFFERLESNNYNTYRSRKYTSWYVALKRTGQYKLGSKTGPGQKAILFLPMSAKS

[3] = target: B1; assay: ELISA
[4] = target: B2; assay: ELISA
[5] = target: recombinant human syndecan-2 (human, UniProt P34741 19-144); assay: ELISA
Chain of recombinant human syndecan-2 (P34741 19-144): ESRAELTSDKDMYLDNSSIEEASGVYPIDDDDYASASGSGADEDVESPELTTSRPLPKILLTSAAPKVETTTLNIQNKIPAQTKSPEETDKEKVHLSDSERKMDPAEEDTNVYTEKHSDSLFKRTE

[6] = target: T1, recombinant human syndecan-4 (human, UniProt P31431 19-145); assay: ELISA
T1 sequence (looked up): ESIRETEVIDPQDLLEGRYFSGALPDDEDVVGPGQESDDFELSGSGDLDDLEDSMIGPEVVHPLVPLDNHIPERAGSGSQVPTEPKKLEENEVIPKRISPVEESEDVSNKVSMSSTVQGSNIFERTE

[7] = target: T2, recombinant human syndecan-1 (human, UniProt P18827 23-254); assay: ELISA
T2 sequence (looked up): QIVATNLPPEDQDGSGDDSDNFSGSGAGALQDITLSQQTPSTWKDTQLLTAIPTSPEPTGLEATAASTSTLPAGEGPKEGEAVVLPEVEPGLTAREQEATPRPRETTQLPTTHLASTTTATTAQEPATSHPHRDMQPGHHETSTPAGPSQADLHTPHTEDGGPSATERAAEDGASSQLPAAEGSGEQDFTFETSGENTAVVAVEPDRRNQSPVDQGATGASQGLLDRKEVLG

[8] = target: T3, recombinant laminin α3_(2928-3150) protein (human, UniProt Q16787 2928-3150); assay: SPR
T3 sequence (looked up): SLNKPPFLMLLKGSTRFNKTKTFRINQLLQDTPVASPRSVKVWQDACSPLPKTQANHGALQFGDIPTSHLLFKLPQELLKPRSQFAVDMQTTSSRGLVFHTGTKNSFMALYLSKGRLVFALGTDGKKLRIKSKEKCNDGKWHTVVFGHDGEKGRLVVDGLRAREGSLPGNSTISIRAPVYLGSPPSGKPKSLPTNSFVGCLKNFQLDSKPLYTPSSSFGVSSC

laminin-111 [9] = target: T4, laminin-111 (human, UniProt P25391 18-3075; P07942 22-1786; P11047 34-1609); assay: ELISA
laminin-411 = laminin-411 (human, UniProt Q16363 25-1823; P07942 22-1786; P11047 34-1609); assay: ELISA
laminin-421 = laminin-421 (human, UniProt Q16363 25-1823; P55268 33-1798; P11047 34-1609); assay: ELISA
laminin-211 [10] = target: T5, laminin-211 (human, UniProt P24043 23-3122; P07942 22-1786; P11047 34-1609); assay: ELISA
[11] = target: T3, recombinant laminin α3_(2928-3150) …; assay: ELISA
laminin-111 [12] = target: T4, laminin-111; assay: ELISA; remark: listed apart in the source
laminin-211 [13] = target: T5, laminin-211; assay: ELISA; remark: listed apart in the source

Molecule: RLVFALGTDGKKLRIKSKEKCNDGK (peptide, UniProt Q16787 3043-3067, looked up) [laminin-derived peptide α3_(3043-3067)]
- binding result [2]: binds
- binding result [3]: binds
- binding result [4]: binds
- binding result [5]: binds
- binding result [6]: binds
- binding result [7]: binds

Molecule: B1
- Kd [8]: 10.2 nM
- binding result (laminin-111 [9]): binds
- binding result (laminin-411): binds
- binding result (laminin-421): binds
- binding result (laminin-211 [10]): binds
- Kd (laminin-521): 24.2 nM

Molecule: TPGLGPRGLQATARKASRRSRQPARHPACML (peptide, UniProt O15230 3300-3330, looked up) [laminin-derived peptide α5_(3300-3330)]
- binding result [4]: binds
- binding result [5]: binds
- binding result [6]: binds
- binding result [7]: binds

Molecule: B2
- binding result [11]: binds
- binding result (laminin-411): binds
- binding result (laminin-421): binds
- Kd (laminin-521): 12.9 nM
- binding result (laminin-111 [12]): binds
- binding result (laminin-211 [13]): binds

Further lines, results first:

- Kd [1]: 1.2 nM
- Kd (laminin-521): 5.8 nM
Molecule: vascular endothelial growth factor (VEGF)-A165 (ligand)

- binding result [2]: binds
- binding result [3]: binds
- binding result [4]: binds
- binding result [5]: binds
- binding result [6]: binds
- binding result [7]: binds
Molecule: RQRSRPGRWHKVSVRWEKNR (peptide, UniProt O15230 3417-3436, looked up) [laminin-derived peptide α5_(3417-3436)]

- binding result [2]: binds
Molecule: PPFLMLLKGSTRFNKTKTFR (peptide, UniProt Q16787 2932-2951, looked up) [laminin-derived peptide α3_(2932-2951)]

- binding result [2]: binds
- binding result [3]: binds
- binding result [4]: binds
Molecule: TLPDVGLELEVR (peptide, UniProt O15230 3539-3550, looked up) [laminin-derived peptide α5_(3539-3550)]
